Experimental data reported in patent US10526416B2, “Anti-HER3 antibodies and uses of same” (Yeda Research and Development Co. Ltd., priority 2014, dated 2020).

B1: NG83: anti-HER3 mAb; light chain CDRs SEQ ID NOs: 7-9, heavy chain CDRs 10-12 (antibody, V domains shown)
VH: QIQLVQSGPELKKRGETVKISCKASGYTFTNYGMNWVRQAPGKGLKCMGWINTYAGEPTYADDFKGRFAFSLDSSASTAYLQINNLKNEDMATYFCARGGITGAMDYWGQGTSVTVSS
VL: DVVMTQKTSSLSTSLGDRVTISCRASQDIRNYLNWYQQKPDGTVKLLIYYTSRLHSGVPSRFSGSGSGTDYSLTISDLEQEDIATYFCQQGNTLPWTFGGGTKLAIK
modifications: VH chain of NG83 polypeptide; VL chain of NG83 polypeptide
B2: XC252: anti-HER3 mAb generated as described in Chen X, et al. (1996); heavy and light chain SEQ ID NOs: 49 and 53 (antibody, V domains shown)
VH: EVQLQQSGAELVRPGVSVKISCKGSGYTFTDYAMHWVKQSHAKSLEWIGVISTYYGDPRDNQKFKGKATMTVDKSSSTAYMELARLTSEDSAIYYCARGDYDWYAIDYWGQGTSVTVSS
VL: DVVMTQTPLSLPVSLGDQASISCRSSQSIVHSDGNTYLEWYLQKPGQSPKLLIYKVSNRFSGVPDRFSGSGSGTDFTLKISRVEAEDLGVYYCFQGSHVPPTFGGGTKLEIK
modifications: VH chain of XC252 polypeptide; VL chain of XC252 polypeptide

Columns and labels:
[1] = target: NRG binding to HER3 (Homo sapiens, UniProt P21860); details: increasing mAb concentrations, 45 min at 4° C., then d2-labeled NRG
Sequence of NRG binding to HER3 (P21860 20-1342): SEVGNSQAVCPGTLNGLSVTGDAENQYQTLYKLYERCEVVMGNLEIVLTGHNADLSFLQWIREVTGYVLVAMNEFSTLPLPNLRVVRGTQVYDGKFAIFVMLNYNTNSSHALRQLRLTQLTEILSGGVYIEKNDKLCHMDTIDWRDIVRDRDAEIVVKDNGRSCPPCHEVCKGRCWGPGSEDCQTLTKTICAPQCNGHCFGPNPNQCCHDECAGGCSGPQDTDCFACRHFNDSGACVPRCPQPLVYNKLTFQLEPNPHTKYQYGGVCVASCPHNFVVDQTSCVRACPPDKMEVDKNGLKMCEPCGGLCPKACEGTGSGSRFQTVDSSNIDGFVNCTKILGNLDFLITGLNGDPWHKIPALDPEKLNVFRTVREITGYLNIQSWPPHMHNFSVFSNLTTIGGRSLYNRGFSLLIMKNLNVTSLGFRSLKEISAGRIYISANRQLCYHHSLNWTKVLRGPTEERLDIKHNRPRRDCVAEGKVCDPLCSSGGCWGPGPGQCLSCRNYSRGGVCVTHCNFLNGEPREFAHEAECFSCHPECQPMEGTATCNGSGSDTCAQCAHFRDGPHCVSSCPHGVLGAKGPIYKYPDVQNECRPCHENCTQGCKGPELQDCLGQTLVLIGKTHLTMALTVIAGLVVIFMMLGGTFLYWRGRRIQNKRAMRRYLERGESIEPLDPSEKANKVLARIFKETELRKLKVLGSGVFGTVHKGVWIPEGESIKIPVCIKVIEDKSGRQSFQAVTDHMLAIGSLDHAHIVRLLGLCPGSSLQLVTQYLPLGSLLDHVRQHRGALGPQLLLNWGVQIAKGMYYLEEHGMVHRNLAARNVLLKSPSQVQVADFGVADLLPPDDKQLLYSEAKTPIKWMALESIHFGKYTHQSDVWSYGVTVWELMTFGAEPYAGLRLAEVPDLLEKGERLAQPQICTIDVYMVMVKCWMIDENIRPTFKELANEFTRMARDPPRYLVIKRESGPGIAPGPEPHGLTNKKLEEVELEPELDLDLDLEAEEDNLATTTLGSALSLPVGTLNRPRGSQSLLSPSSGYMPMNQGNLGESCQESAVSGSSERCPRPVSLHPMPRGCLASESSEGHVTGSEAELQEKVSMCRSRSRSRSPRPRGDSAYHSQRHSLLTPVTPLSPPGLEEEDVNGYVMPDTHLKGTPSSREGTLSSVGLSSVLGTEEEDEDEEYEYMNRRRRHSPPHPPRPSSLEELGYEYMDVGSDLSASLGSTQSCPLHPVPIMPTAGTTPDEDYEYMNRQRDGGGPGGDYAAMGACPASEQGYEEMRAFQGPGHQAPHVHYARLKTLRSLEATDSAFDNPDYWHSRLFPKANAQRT
Procedure: (FIG. 9A) The indicated mAbs were checked for their capacity to compete with fluorescent dye labeled NRG. […] After washes, the labeled-NRG was added and incubated for 30 min at 4° C. Fluorescence intensity at 670 nm was determined following 3 final washes. (FIG. 9B) The ability of the mAbs to avoid NRG-induced phosphorylation of HER3, AKT and ERK, was studied with N87 cells. After 20 min treatment with the indicated mAbs (10 μg/ml) at 37° C., NRG (20 ng/ml) was added to the cells for 10 min. The cells were then lysed, and equal quantities of protein lysates were run on 9% bisacrylamide gel before immunoblotting with the indicated primary antibodies. (FIG. 9C) The capacity of mAb NG33 to avoid NRG-induced migration was checked with OVCAR-5 cells and the quantification reported in a histogram. […] Signals of triplicates were quantified. **** […] (ANOVA and post hoc tests).
Agent labeling was performed by Cisbio. […] Following 1 h incubation, the plate was washed 4 times with KREBS buffer (146 mM NaCl, 4 mM KCl, 0.5 mM MgCl2, 1 mM CaCl2, 10 mM Hepes, 1 gr/L glucose, and 1 mg/mL albumin), and the fluorescent intensity (excitation: 488 nm, emission: 610 nm) was measured using a fluorescence microplate reader. […] Finally, following two washes with KREBS buffer, the fluorescence intensity was measured at 670 nm (excitation: 620 nm). […]

[2] = target: T1, IgB3 (Homo sapiens, UniProt P21860); experiment: Antibody competition assay with Lumi4(Tb)-labeled NG33 on IgB3-coated plates; format: binding; details: NG33-K2 1 nM
T1 construct: To produce IgB3 (recombinant HER3 extracellular domain fused to a human IgG Fc domain); made in house
T1 sequence (P21860 20-643 limits assumed): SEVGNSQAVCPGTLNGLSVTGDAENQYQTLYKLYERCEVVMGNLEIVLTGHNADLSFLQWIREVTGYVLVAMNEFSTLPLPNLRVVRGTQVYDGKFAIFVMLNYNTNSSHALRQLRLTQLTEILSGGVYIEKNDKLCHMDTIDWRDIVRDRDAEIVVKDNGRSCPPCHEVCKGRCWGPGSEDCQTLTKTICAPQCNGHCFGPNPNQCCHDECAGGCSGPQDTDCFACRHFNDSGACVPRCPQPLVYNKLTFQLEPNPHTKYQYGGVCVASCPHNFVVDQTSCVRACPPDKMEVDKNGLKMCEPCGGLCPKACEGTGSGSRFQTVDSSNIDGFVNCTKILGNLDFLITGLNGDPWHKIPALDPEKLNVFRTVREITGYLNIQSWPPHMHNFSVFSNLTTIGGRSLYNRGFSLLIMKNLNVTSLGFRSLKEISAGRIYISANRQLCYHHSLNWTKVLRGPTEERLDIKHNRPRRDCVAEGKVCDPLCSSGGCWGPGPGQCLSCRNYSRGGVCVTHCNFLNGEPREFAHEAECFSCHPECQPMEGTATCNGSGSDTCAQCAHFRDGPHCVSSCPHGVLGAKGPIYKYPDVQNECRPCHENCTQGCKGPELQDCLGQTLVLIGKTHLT
T1 sequence (P01857 99-330 partner limits assumed): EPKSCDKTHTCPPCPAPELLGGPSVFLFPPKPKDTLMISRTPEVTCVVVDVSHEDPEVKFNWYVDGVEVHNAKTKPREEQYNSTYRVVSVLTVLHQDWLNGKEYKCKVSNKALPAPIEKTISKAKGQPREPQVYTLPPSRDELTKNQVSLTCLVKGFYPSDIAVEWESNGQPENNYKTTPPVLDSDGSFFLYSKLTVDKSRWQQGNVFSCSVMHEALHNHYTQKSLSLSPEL
Procedure: FIGS. 12A-D show a combination of two mAbs directed to two different epitopes of HER3. (FIGS. 12A and 12B) The antibodies NG33 and XC252 were labeled with the fluorescent dye Lumi4® Tb Cryptate (K2). 96 well-plate were coated with IgB3 (1.5 μg/ml), blocked with PBS-BSA and incubated for 1 h with various concentrations of mAbs under gentle shaking at RT. The labeled mAb, NG33-K2 (FIG. 12A) or XC252-K2 (FIG. 12B), was then added at 1 nM final concentration. After ah incubation, the plate was washed 4 times with KREBS buffer, and the fluorescence intensity at 610 nm was measured using a fluorescence microplate reader. (FIG. 12C) The various anti-HER3 mAb combinations were studied for their ability to trigger HER3 degradation using N87 cells. Cells were treated for 2 h at 37° C. with mAb (10 μg/ml). After cell lysis and protein extraction, the samples were subjected to immunoblotting with the indicated antibodies. (FIG. 12D) The combination's capacity to modulate NRG-induced phosphorylation of HER3, AKT and ERK was evaluated using N87 cells. After 20 min treatment at 37° C. with 10 μg/ml of mAbs, NRG (20 ng/ml) was added to the cells for 10 min. The cells were then lysed, and equal quantities of lysate protein were electrophoresed before immunoblotting, as indicated.
Agent labeling was performed by Cisbio. […] Following 1 h incubation, the plate was washed 4 times with KREBS buffer (146 mM NaCl, 4 mM KCl, 0.5 mM MgCl2, 1 mM CaCl2, 10 mM Hepes, 1 gr/L glucose, and 1 mg/mL albumin), and the fluorescent intensity (excitation: 488 nm, emission: 610 nm) was measured using a fluorescence microplate reader. […] Finally, following two washes with KREBS buffer, the fluorescence intensity was measured at 670 nm (excitation: 620 nm).
Combinations of antibodies directed against two different epitopes of the same receptor, as has been previously shown, can improve the effect of treatment with a single mAb (28, 29). […] First, it was determined which antibody from the anti-HER3 series targets an epitope distinct from that targeted by NG33. […]

Molecule | effect on NRG binding to HER3 [1] | effect on binding of Lumi4(Tb)-labeled NG33 to IgB3 [2]
B1 | did not disturb NRG binding | potentiated NG33 binding to IgB3
B2 | slightly enhanced NRG binding | did not alter NG33 binding
